# Measured values as given in paper PMC8396344, “Palmitoylation of Prolactin-Releasing Peptide Increased Affinity for and Activation of the GPR10, NPFF-R2 and NPFF-R1 Receptors: In Vitro Study” (International Journal of Molecular Sciences, 2021).
# Non-standard residues stand in square brackets, D forms with d. No end group written: not given here. NMeF = CN[C@@H](Cc1ccccc1)C(=O)O
# T1: GPR10 (Homo sapiens, UniProt P49683)
# T1 construct: host or cells: CHO-K1
# T1 sequence (P49683 1-370): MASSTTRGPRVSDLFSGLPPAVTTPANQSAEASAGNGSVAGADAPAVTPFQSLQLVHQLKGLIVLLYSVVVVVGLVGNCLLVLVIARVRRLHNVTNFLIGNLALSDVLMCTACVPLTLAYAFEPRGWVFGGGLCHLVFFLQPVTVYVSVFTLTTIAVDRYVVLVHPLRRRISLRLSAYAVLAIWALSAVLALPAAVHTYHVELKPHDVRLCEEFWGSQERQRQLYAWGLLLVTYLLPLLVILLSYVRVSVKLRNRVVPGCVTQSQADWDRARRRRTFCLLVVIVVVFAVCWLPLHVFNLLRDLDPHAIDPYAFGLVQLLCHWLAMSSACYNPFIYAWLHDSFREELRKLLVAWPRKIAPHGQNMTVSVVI
# T2: GPR10 (human, UniProt P49683 1-370)
# T2 sequence (looked up): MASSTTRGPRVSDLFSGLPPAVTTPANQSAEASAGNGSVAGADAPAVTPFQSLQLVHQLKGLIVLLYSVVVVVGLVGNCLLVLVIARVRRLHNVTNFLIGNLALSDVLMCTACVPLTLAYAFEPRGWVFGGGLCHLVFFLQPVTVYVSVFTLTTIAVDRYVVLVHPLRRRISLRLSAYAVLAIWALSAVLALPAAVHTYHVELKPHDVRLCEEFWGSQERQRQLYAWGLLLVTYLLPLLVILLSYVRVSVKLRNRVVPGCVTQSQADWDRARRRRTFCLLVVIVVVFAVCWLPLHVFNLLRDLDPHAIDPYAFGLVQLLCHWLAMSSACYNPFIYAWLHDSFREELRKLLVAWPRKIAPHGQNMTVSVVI
# Legend:
# NPFF-R2 [1] = target: T3, NPFF-R2 (Homo sapiens, UniProt Q9Y5X5); assay: Cell signaling by immunoblotting, CHO-K1 cells expressing NPFF-R2; assay type: cell-based; conditions: dose-response 10^−11 to 10^−5 M, 5 min, 37 °C, immunoblot, at least two experiments
# T3 construct: host or cells: CHO-K1 (AequoScreen, co-expressing aequorin)
# Protocol: Cells were seeded in 24-well plates at 30,000 cells/well in assay medium (growth medium without selective antibiotics) and were grown for 2 days. The day before the experiment, the medium was changed to serum-free medium. […] Cells were lysed with Laemmli sample buffer (62.5 mM Tris-HCl at pH 6.8, 2% SDS, 10% glycerol, 0.01% bromophenol blue, 5% β-mercaptoethanol, 50 mM NaF, and 1 mM Na3VO4). Samples were stored at −20 °C. Electrophoresis and immunoblotting were performed as described previously. For detection of signaling pathways, primary monoclonal antibodies (see Table 5 for the antibodies used) purchased from Cell Signaling Technology (Danvers, MA, USA) were used.
# (§1) Experiments using immunoblotting were analyzed using one-way ANOVA followed by Dunnett’s post hoc test; p < 0.05 was considered statistically significant. Dose-response curves were obtained from nonlinear regression.
# GPR10 [2] = target: T1, GPR10; assay: Cell signaling by immunoblotting, CHO-K1 cells expressing GPR10; assay type: cell-based; conditions: dose-response 10^−11 to 10^−5 M, 5 min, 37 °C, immunoblot, at least two experiments
# Protocol: Activation of signaling pathways was studied in the CHO-K1 cell lines containing GPR10, NPFF-R2 and NPFF-R1. Cells were seeded in 24-well plates at 30,000 cells/well in assay medium (growth medium without selective antibiotics) and were grown for 2 days. The day before the experiment, the medium was changed to serum-free medium. […] Cells were lysed with Laemmli sample buffer (62.5 mM Tris-HCl at pH 6.8, 2% SDS, 10% glycerol, 0.01% bromophenol blue, 5% β-mercaptoethanol, 50 mM NaF, and 1 mM Na3VO4). Samples were stored at −20 °C. Electrophoresis and immunoblotting were performed as described previously. For detection of signaling pathways, primary monoclonal antibodies (see Table 5 for the antibodies used) purchased from Cell Signaling Technology (Danvers, MA, USA) were used.
# as §1
# kappa-opioid receptor = kappa-opioid receptor (UniProt P41145 1-380); assay: radioligand binding; competition with [^125I]-dynorphin A on plasma membranes of CHO-K1 cells with KOR, 5 µg protein/tube; 50 mM Tris-HCl pH 7.4, 60 mM NaCl, 1 mM MgCl2, 0.5% BSA; 60 min at RT; filtration; Ki by the Cheng-Prusoff equation
# GPR10 [3] = target: T2, GPR10
# NPFF-R1 = target: T4, NPFF-R1 (UniProt Q9GZQ6 1-430); assay: radioligand binding; competition with [^125I]-1DMe on plasma membranes of CHO-K1 cells with NPFF-R2 or NPFF-R1, 5 µg protein/tube; 50 mM Tris-HCl pH 7.4, 60 mM NaCl, 1 mM MgCl2, 0.5% BSA; 60 min at RT; filtration; Ki by the Cheng-Prusoff equation; conditions: one partner purified
# T4 construct: also called NPFF-1R; source: CHO-K1 cell line, bought: Perkin Elmer
# NPFF-R2 [4] = target: T5, NPFF-R2 (UniProt Q9Y5X5 1-522); assay: as above; conditions: one partner purified
# T5 construct: also called NPFF-2R; source: CHO-K1 cell line (AequoScreen), bought: Perkin Elmer
molecule,measurement,setting,value
"SRAHQHSMETRTPDINPAWYTGRGIRPVGRF-NH2 [PrRP31, prolactin-releasing peptide 31, reference compound]",EC50 of ERK activation,NPFF-R2 [1],in nanomolar concentrations
same,EC50 of ERK activation,GPR10 [2],in the nanomolar range
[D-Pro10]-dynorphin A (peptide),Ki,kappa-opioid receptor,0.36 nM
human prolactin-releasing peptide 31,"EC50, agonist mode, β-lactamase reporter assay",GPR10 [3],0.53 nM
"[dY]L[NMeF]QPQRF-NH2 (N-terminus assumed; SMILES CC(C)C[C@H](NC(=O)[C@H](N)Cc1ccc(O)cc1)C(=O)N(C)[C@@H](Cc1ccccc1)C(=O)N[C@@H](CCC(N)=O)C(=O)N1CCC[C@H]1C(=O)N[C@@H](CCC(N)=O)C(=O)N[C@@H](CCCNC(=N)N)C(=O)N[C@@H](Cc1ccccc1)C(N)=O, numbers count on: the peptide NPFF; source: synthetic peptide, purified (HPLC, purity greater than 95%)) [1DMe]",Ki,NPFF-R1,0.79 nM
same,Ki,NPFF-R2 [4],1.03 nM
